The values below are quoted from earlier work in article PMC9694239.

This data set deals with CNG channel beta subunit CaM1 peptide CaM1 (Homo sapiens) (UniProt Q14028).
Sequence of CNG channel beta subunit CaM1 peptide CaM1 (Homo sapiens) (Q14028 whole entry, looked up, tested part not stated): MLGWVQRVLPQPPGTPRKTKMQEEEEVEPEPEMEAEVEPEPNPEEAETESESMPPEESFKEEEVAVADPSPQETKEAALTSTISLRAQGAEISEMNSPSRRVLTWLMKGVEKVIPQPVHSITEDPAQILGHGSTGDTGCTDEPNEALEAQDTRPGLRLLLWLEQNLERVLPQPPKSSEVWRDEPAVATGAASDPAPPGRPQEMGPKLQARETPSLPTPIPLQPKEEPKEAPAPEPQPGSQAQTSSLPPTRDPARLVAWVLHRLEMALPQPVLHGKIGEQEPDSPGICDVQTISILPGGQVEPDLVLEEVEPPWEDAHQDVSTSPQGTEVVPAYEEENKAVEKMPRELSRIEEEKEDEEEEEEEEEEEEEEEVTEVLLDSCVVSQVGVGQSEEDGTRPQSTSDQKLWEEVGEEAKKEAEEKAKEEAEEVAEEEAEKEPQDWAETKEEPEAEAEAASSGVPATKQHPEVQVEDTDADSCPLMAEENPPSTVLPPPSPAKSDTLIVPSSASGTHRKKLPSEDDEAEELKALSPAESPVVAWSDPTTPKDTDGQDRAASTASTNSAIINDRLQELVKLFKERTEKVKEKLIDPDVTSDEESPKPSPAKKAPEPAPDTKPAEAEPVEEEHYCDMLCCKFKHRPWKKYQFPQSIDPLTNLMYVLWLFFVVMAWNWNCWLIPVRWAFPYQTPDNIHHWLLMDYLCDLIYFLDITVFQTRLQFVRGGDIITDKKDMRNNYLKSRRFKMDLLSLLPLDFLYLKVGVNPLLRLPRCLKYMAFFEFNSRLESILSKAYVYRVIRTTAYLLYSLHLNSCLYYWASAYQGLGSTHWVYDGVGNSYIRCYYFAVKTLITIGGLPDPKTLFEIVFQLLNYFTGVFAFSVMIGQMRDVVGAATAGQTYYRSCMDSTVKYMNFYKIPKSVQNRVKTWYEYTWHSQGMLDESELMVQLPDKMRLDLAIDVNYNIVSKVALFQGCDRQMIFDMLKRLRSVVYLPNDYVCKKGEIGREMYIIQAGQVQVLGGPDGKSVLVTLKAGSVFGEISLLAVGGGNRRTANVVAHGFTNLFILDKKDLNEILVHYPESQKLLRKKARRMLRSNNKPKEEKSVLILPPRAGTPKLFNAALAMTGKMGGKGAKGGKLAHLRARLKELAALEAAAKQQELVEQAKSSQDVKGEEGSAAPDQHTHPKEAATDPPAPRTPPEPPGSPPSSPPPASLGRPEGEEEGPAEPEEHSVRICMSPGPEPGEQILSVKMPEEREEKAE

Regarding Calmodulin N-lobe (from UniProt P0DP23), the Kd is 5 µM.
